# Patent US20240116985A1 (published 2024)
# Starred links: 1 amine or outer side, 2 acyl side, 3 side chain; linkers in the order of their positions; H or OH if unused. Positions of bridges follow the written chain, without caps; N, C: chain ends. Non-standard residues stand in square brackets, D forms with d. Primed or numbered codes have the meaning given here. (Pfbn)GAbu = (S)-2-amino-4-((carboxymethyl)((perfluorophenyl)methyl)amino)butanoic acid, O=C([C@H](CCN(CC(=O)[*:3])Cc1c(F)c(F)c(F)c(F)c1F)N[*:1])[*:2]; PyrS2″ = (S)-3-amino-1-((pent-4-en-1-yloxy)carbonyl)pyrrolidine-3-carboxylic acid (stapling residue), C=CCCCOC(=O)N1CC[C@@](N[*:1])(C(=O)[*:2])C1; (Tfb)GAbu = (S)-2-amino-4-((carboxymethyl)(4,4,4-trifluorobutyl)amino)butanoic acid, O=C([C@H](CCN(CCCC(F)(F)F)CC(=O)[*:3])N[*:1])[*:2]; (Tfp)GAbu = (S)-2-amino-4-((carboxymethyl)(3,3,3-trifluoropropyl)amino)butanoic acid, O=C([C@H](CCN(CCC(F)(F)F)CC(=O)[*:3])N[*:1])[*:2]; B5(23) = 2-amino-2-(pent-4-en-1-yl)hept-6-enoic acid (2,2-bis(4-pentenyl)glycine), stitching residue, C=CCCCC(CCCC=C)(N[*:1])C(=O)[*:2]; B5(4) = 2,2-bis(4-pentenyl)glycine = 2-amino-2-(pent-4-en-1-yl)hept-6-enoic acid (stitching residue), C=CCCCC(CCCC=C)(N[*:1])C(=O)[*:2]; PyrS″ = (S)-1-((allyloxy)carbonyl)-3-aminopyrrolidine-3-carboxylic acid (stapling residue), C=CCOC(=O)N1CC[C@@](N[*:1])(C(=O)[*:2])C1; TfeGA = (S)-2-amino-3-((carboxymethyl)(2,2,2-trifluoroethyl)amino)propanoic acid, O=C([C@H](CN(CC(=O)[*:3])CC(F)(F)F)N[*:1])[*:2]; PyrS2 = (S)-3-amino-1-((pent-4-en-1-yloxy)carbonyl)pyrrolidine-3-carboxylic acid, C=CCCCOC(=O)N1CC[C@@](N[*:1])(C(=O)[*:2])C1; PyrS1 = (S)-3-amino-1-((but-3-en-1-yloxy)carbonyl)pyrrolidine-3-carboxylic acid, C=CCCOC(=O)N1CC[C@@](N[*:1])(C(=O)[*:2])C1; Az = 1-((allyloxy)carbonyl)-3-aminoazetidine-3-carboxylic acid (stapling residue), C=CCOC(=O)N1CC(N[*:1])(C(=O)[*:2])C1; (Bn)GAbu = (S)-2-amino-4-(benzyl(carboxymethyl)amino)butanoic acid, O=C([C@H](CCN(CC(=O)[*:3])Cc1ccccc1)N[*:1])[*:2]; PyrS = (S)-1-((allyloxy)carbonyl)-3-aminopyrrolidine-3-carboxylic acid, C=CCOC(=O)N1CC[C@@](N[*:1])(C(=O)[*:2])C1; B5(19) = 2-amino-2-(pent-4-en-1-yl)hept-6-enoic acid (bis(4-pentenyl)glycine), C=CCCCC(CCCC=C)(N[*:1])C(=O)[*:2]; HypEs5 = (2R,4S)-4-(pent-4-enoyloxy)pyrrolidine-2-carboxylic acid, C=CCCC(=O)O[C@H]1C[C@H](C(=O)[*:2])N([*:1])C1; (Et)GAbu = (S)-2-amino-4-((carboxymethyl)(ethyl)amino)butanoic acid, CCN(CC[C@H](N[*:1])C(=O)[*:2])CC(=O)[*:3]; Phe(2-Cl) = N[C@@H](Cc1ccccc1Cl)C(=O)O; Bta = N[C@@H](Cc1csc2ccccc12)C(=O)O; αAllylPro = C=CC[C@@]1(C(=O)O)CCCN1; tBuAla = CC(C)(C)C[C@H](N)C(=O)O; 3Thi = N[C@@H](Cc1ccsc1)C(=O)O
# T1: B-cat-Halo (beta-catenin HaloTag construct expressed in HEK293 cells) (UniProt P35222 1-781)
# T1 sequence (looked up): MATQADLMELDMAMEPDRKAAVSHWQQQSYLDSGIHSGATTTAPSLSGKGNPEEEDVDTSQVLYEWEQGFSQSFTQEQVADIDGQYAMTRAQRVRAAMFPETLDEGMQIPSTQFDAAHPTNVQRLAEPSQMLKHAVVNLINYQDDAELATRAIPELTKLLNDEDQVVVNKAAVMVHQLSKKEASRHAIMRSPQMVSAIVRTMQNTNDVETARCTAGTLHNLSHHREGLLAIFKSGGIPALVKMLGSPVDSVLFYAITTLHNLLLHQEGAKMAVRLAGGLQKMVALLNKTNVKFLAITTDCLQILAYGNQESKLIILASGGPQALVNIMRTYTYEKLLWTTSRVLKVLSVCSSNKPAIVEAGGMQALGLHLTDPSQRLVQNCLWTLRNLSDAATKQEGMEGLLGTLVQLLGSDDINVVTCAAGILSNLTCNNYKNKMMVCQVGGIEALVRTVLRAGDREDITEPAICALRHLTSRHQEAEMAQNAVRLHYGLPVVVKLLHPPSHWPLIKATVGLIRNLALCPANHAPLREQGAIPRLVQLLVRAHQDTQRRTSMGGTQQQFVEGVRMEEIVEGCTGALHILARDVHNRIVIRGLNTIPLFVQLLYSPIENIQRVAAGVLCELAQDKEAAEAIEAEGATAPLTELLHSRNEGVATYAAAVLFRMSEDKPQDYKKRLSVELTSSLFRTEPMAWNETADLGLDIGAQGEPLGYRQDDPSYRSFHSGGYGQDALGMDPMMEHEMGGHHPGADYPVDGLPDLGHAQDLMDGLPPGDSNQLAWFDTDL
# T2: B-cat-Halo (UniProt P35222 1-781)
# T2 sequence (looked up): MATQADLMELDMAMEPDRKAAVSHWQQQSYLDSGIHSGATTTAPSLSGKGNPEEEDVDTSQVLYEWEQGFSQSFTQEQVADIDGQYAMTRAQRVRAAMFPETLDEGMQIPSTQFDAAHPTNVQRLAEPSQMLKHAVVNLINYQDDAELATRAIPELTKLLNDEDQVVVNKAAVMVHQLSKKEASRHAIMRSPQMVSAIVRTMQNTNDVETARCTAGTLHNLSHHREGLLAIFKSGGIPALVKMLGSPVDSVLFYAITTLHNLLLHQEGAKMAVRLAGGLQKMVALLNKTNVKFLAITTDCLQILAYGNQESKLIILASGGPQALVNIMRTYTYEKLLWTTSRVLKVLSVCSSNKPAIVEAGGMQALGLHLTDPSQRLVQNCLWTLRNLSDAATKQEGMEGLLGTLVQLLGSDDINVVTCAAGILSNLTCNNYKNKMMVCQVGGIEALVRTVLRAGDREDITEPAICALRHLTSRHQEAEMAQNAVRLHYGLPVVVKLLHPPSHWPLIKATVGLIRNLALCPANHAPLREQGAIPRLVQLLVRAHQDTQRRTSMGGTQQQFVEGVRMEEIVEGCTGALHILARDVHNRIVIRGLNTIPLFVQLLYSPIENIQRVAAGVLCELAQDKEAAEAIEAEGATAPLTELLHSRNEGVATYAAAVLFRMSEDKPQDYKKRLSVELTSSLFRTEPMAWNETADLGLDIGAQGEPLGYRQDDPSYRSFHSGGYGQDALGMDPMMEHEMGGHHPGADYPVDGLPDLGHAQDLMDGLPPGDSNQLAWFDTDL
# Target: T1, B-cat-Halo (beta-catenin HaloTag …)
# Assay: cell-based or functional assay
row,NanoBRET Abs IC50 [µM],Binder
1,> 20,"Ac-[αAllylPro]D[tBuAla][B5(4)]DDAAFL[Az][3Thi][Bta]Q-NH2 (staple 1-4, 4-11) [I-1828]"
2,6.9,"Ac-[αAllylPro]D[tBuAla][B5(4)]D[TfeGA]AAFL[PyrS2″][Phe(2-Cl)][Bta]Q-NH2 (staple 1-4, 4-11) [I-1833]"
3,7.9,"Ac-[αAllylPro]D[tBuAla][B5(4)]D[(Pfbn)GAbu]AAFL[PyrS2″][3Thi][Bta]Q-NH2 (staple 1-4, 4-11) [I-1838]"
4,14.6,"Ac-[αAllylPro]D[tBuAla][B5(4)]D[(Tfp)GAbu]AAFL[PyrS2″][3Thi][Bta]Q-NH2 (staple 1-4, 4-11) [I-1839]"
5,18.5,"Ac-[αAllylPro]D[tBuAla][B5(4)]D[(Tfb)GAbu]AAFL[PyrS2″][3Thi][Bta]Q-NH2 (staple 1-4, 4-11) [I-1837]"
6,31.9,"Ac-[αAllylPro]D[tBuAla][B5(4)]D[(Et)GAbu]AAFL[PyrS2″][3Thi][Bta]Q-NH2 (staple 1-4, 4-11) [I-1835]"
7,18.8,"Ac-[αAllylPro]D[tBuAla][B5(4)]D[(Bn)GAbu]AAFL[PyrS2″][3Thi][Bta]Q-NH2 (staple 1-4, 4-11) [I-1834]"
8,> 20,"Ac-[αAllylPro]D[tBuAla][B5(19)]DDAAFL[PyrS1][3Thi][Bta]Q-NH2 (staple 1-4, 4-11; also: staple olefins reduced to CH2-CH2) [I-1822]"
9,> 20,"Ac-[αAllylPro]D[tBuAla][B5(19)]DDAAFL[PyrS][3Thi][Bta]Q-NH2 (staple 1-4, 4-11) [I-1818]"
10,> 20,"Ac-[αAllylPro]D[tBuAla][B5(4)]DDAAFL[PyrS″][3Thi][Bta]Q-NH2 (staple 1-4, 4-11; also: staple -CH=CH- reduced to -CH2-CH2- in both staples) [I-1824]"
11,> 20,"Ac-[αAllylPro]D[tBuAla][B5(19)]DDAAFN[PyrS1][3Thi][Bta]Q-NH2 (staple 1-4, 4-11; also: staple olefins reduced to CH2-CH2) [I-1821]"
12,> 20,"Ac-[αAllylPro]D[tBuAla][B5(19)]DDAAFN[PyrS][3Thi][Bta]Q-NH2 (staple 1-4, 4-11; also: staple olefins reduced to CH2-CH2) [I-1823]"

# Target: T2, B-cat-Halo
# Assay: cell-based or functional assay
row,NanoBRET Abs IC50 [µM],Binder
1,> 20,"Ac-[HypEs5]D[tBuAla][B5(23)]DDAAFN[PyrS2][3Thi][Bta]Q-NH2 (staple 1-4, 4-11) [I-1573]"
